From patent US20190367560A1
Values belong to the molecule of their own block, whether it stands above or below them. Bridges are numbered along the chain shown (N, C = ends). Primed or numbered codes have the meaning given here. Where no end group is shown, it is not given here. [ ]: non-standard residue; d: D form. The star is where a group is joined. Biotin = O=C1N[C@H]2[C@H](CS[C@H]2CCCCC(=O)*)N1; Fmoc = O=C(OCC1c2ccccc2-c2ccccc21)*; PEG4′ = not defined here

Columns and labels:
IgG [1] = assay: SPR (BIAcore T200), 1:1 binding fit
IgG [2] = assay: SPR (BIAcore T200), equilibrium value
[3] = molecular target: human serum-derived γ-globulin (Wako) (human); assay: dynamic binding capacity at 10% breakthrough; Protein A support; residence time 1 min
[4] = molecular target: human serum-derived γ-globulin (Wako) (human); assay: dynamic binding capacity at 10% breakthrough; Protein A support; residence time 5 min
[5] = molecular target: human serum-derived γ-globulin (Wako) (human); assay: dynamic binding capacity at 10% breakthrough; Protein A support; residence time 2.5 min
IgG [6] = assay: SPR as in Example 1 (BIAcore T200, IgG immobilized)
[7] = molecular target: human serum-derived γ-globulin (Wako) (human); assay: dynamic binding capacity at 10% breakthrough; 4 mg peptide on 1-mL column; residence time 5 min
[8] = molecular target: human serum-derived γ-globulin (Wako) (human); assay: dynamic binding capacity at 10% breakthrough; 10 mg peptide on 1-mL column; residence time 5 min
[9] = molecular target: human serum-derived γ-globulin (Wako) (human); assay: DBC at 1 mL/min, 1 mg peptide column, after 5 cycles of 0.1 M NaOH washing
[10] = molecular target: human serum-derived γ-globulin (Wako) (human); assay: DBC at 1 mL/min, 1 mg peptide column, after 1 cycle of 0.1 M NaOH washing
[11] = molecular target: human serum-derived γ-globulin (Wako) (human); assay: dynamic binding capacity at 10% breakthrough; 4 mg peptide on 1-mL column; residence time 1 min
[12] = molecular target: human serum-derived γ-globulin (Wako) (human); assay: DBC at 1 mL/min, 1 mg peptide column, after 4 cycles of 0.1 M NaOH washing
[13] = molecular target: human serum-derived γ-globulin (Wako) (human); assay: dynamic binding capacity at 10% breakthrough; 1 mg peptide on 1-mL column; residence time 1 min
[14] = molecular target: human serum-derived γ-globulin (Wako) (human); assay: dynamic binding capacity at 10% breakthrough; 4 mg peptide on 1-mL column; residence time 2.5 min
[15] = molecular target: human serum-derived γ-globulin (Wako) (human); assay: DBC at 1 mL/min, 1 mg peptide column, after 3 cycles of 0.1 M NaOH washing
[16] = molecular target: human serum-derived γ-globulin (Wako) (human); assay: dynamic binding capacity at 10% breakthrough; 1 mg peptide on 1-mL column; residence time 5 min
[17] = molecular target: human serum-derived γ-globulin (Wako) (human); assay: DBC at 1 mL/min, 1 mg peptide column, after 2 cycles of 0.1 M NaOH washing
[18] = molecular target: human serum-derived γ-globulin (Wako) (human); assay: DBC at 1 mL/min, 1 mg peptide column, after 0 cycles of 0.1 M NaOH washing
[19] = molecular target: human serum-derived γ-globulin (Wako) (human); assay: dynamic binding capacity at 10% breakthrough; 10 mg peptide on 1-mL column; residence time 2.5 min
[20] = molecular target: human serum-derived γ-globulin (Wako) (human); assay: dynamic binding capacity at 10% breakthrough; 10 mg peptide on 1-mL column; residence time 1 min
[21] = molecular target: human serum-derived γ-globulin (Wako) (human); assay: dynamic binding capacity at 10% breakthrough; 1 mg peptide on 1-mL column; residence time 2.5 min

Molecule: GPDCAYH(Xaa1)…-NH2 (SEQ ID NO:2, wherein Xaa1 is lysine), N-terminus blocked with biotinylated PEG4, intramolecular S-S bond (peptide)
- Kd (IgG [1]): 0.156 µM
- Kd (IgG [2]): 0.131 µM

Molecule: commercially available Protein A support MabSelect (GE Healthcare) (from UniProt P38507 37-327)
- DBC [3]: 10
- DBC [4]: 43.7
- DBC [5]: 24.3

Molecule: {Biotin-PEG4′}-GPDCAYHLGELVWCTFH-NH2 (disulfide 4-14 (inferred))
- Kd (IgG [1]): 0.0081 µM

Molecule: {Biotin-PEG4′}-DCAYHRGELVWCT-NH2 (disulfide 2-12 (inferred))
- Kd (IgG [1]): 0.054 µM
- Kd (IgG [2]): 0.0645 µM

Molecule: [PEG4′]GPDCAYHRGELVWCTFH-NH2 (linker 5-15 via 1,3‑dichloro‑2‑propanone)
- DBC [7]: 23.1
- DBC [8]: 31.4
- DBC 10% [9]: 4.7 mg/mL
- DBC 10% (% NaOH washing cycle 0) [9]: 97.9%
- DBC 10% [10]: 4.8 mg/mL
- DBC 10% (% NaOH washing cycle 0) [10]: 100%
- DBC [11]: 12.1
- DBC 10% [12]: 4.8 mg/mL
- DBC 10% (% NaOH washing cycle 0) [12]: 100%
- DBC [13]: 2.3
- DBC [14]: 15.8
- DBC 10% [15]: 4.8 mg/mL
- DBC 10% (% NaOH washing cycle 0) [15]: 100%
- DBC [16]: 7
- DBC 10% [17]: 4.9 mg/mL
- DBC 10% (% NaOH washing cycle 0) [17]: 102%
- DBC 10% [18]: 4.8 mg/mL
- DBC 10% (% NaOH washing cycle 0) [18]: 100%
- DBC [19]: 29.5
- DBC [20]: 23.1
- DBC [21]: 3.4

Now from value to molecule:

- Kd (IgG [1]): 2.7 µM
- Kd (IgG [2]): 2.8 µM
Molecule: GPDCAYH(Xaa1)…-NH2 (SEQ ID NO:2, wherein Xaa1 is acetylated lysine), N-terminus blocked with biotinylated PEG4, intramolecular S-S bond (peptide)

- Kd (IgG [1]): 0.0091 µM
- Kd (IgG [2]): 0.01 µM
Molecule: {Biotin-PEG4′}-GPDCAYHRGELVWCTFH-NH2 (disulfide 4-14 (inferred))

- Kd (IgG [6]): 1 µM
Molecule: {Fmoc-PEG4′}-GPDCAYHRGELVWCTFH-NH2 (linker 4-14 via thiocarbonyldiimidazole)

- Kd (IgG [1]): 0.042 µM
- Kd (IgG [2]): 0.056 µM
Molecule: {Biotin-PEG4′}-GPRCAYHRGELVWCSFH-NH2 (disulfide 4-14 (inferred))
